Experimental data reported in article PMC2213524 (The Journal of Experimental Medicine, 2000).

Target: Histidine-tagged rat N-WASP (rat, UniProt O08816 1-501)
Experiment: pull-down

Chain of Histidine-tagged rat N-WASP (O08816 whole entry): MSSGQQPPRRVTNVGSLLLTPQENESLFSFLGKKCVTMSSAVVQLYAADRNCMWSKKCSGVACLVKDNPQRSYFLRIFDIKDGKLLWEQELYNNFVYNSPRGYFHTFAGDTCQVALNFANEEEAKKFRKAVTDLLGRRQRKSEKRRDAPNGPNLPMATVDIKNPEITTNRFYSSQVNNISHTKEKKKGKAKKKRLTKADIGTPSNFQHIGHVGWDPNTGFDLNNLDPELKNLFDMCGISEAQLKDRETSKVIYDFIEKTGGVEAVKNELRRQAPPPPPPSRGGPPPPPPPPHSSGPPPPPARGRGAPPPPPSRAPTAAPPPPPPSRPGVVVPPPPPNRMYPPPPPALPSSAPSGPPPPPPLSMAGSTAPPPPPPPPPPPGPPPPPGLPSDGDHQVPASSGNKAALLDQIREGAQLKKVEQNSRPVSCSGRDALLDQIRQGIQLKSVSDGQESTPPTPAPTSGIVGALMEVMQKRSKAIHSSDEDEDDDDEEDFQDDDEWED

B1: Recombinant VirG-α1 protein (Thr53–Arg759 of VirG polypeptide) (domain or fragment, S. flexneri, UniProt Q7BCK4 53-759, looked up)
chain: TPLSGTQELHFSEDNYEKLLTPVDGLSPLGAGEDGMDAWYITSSNPSHASRTKLRINSDIMISAGHGGAGDNNDGNSCGGNGGDSITGSDLSIINQGMILGGSGGSGADHNGDGGEAVTGDNLFIINGEIISGGHGGDSYSDSDGGNGGDAVTGVNLPIINKGTISGGNGGNNYGEGDGGNGGDAITGSSLSVINKGTFAGGNGGAAYGYGYDGYGGNAITGDNLSVINNGAILGGNGGHWGDAINGSNMTIANSGYIISGKEDDGTQNVAGNAIHITGGNNSLILHEGSVITGDVQVNNSSILKIINNDYTGTTPTIEGDLCAGDCTTVSLSGNKFTVSGDVSFGENSSLNLAGISSLEASGNMSFGNNVKVEAIINNWAQKDYKLLSADKGITGFSVSNISIINPLLTTGAIDYTKSYISDQNKLIYGLSWNDTDGDSHGEFNLKENAELTVSTILADNLSHHNINSWDGKSLTKSGEGTLILAEKNTYSGFTNINAGILKMGTVEAMTRTAGVIVNKGATLNFSGMNQTVNTLLNSGTVLINNINAPFLPDPVIVTGNMTLEKNGHVILNNSSSNVGQTYVQKGNWHGKGGILSLGAVLGNDNSKTDRLEIAGHASGITYVAVTNEGGSGDKTLEGVQIISTDSSDKNAFIQKGRIVAGSYDYRLKQGTVSGLNTNKWYLTSQMDNQESKQMSNQESTQMSSRR
fold change of coprecipitated amount with Cdc42-G12V (GTPγS) against without: 1.2 fold
